From patent US6132976
Non-standard residues stand in square brackets, D forms with d. No end group written: not given here. Hyp = O=C(O)[C@@H]1C[C@@H](O)CN1

Legend:
[1] = molecular target: heat denatured type II collagen (HDC)
[2] = molecular target: native helical type II collagen
[3] = molecular target: monoclonal antibody COL2-3/4m; experiment: inhibition ELISA with COL2-3/4m, HDC on the plate; sample incubated in Tris/CaCl2 without collagenase

Molecule: chromatographically purified collagenase form III from Clostridium histolyticum (enzyme)
- [α1(II)-CB11B] by immunoassay (µg/ml) after treatment [1]: 0.84 µg/mL

Molecule: α-chymotrypsin (enzyme)
- [CB11B] BY INHIBITION ASSAY (µg/ml) of NC + 500 µg/ml CHYMOTRYPSIN [2]: 0 µg/mL

B1: synthetic peptide CB11B (peptide)
peptide: CGKVGPSGA[Hyp]GEDGR[Hyp]GP[Hyp]GPQY
- [α1(II)-CB11B] by immunoassay [3]: 4.44 µg/mL
